{"source": "patent US11524046B2", "about": "“Biofilm prevention, disruption and treatment with bacteriophage lysin” (priority 2012, dated 2022)", "molecules": {"B1": {"name": "PlySs2: bacteriophage lysin derived from Streptococcus suis, amino acid sequence of FIG. 5 / SEQ ID NO: 1; CHAP and SH3 domains (protein, listed as Streptococcus suis)", "chain": "MTTVNEALNNVRAQVGSGVSVGNGECYALASWYERMISPDATVGLGAGVGWVSGAIGDTISAKNIGSSYNWQANGWTVSTSGPFKAGQIVTLGATPGNPYGHVVIVEAVDGDRLTILEQNYGGKRYPVRNYYSAASYRQQVVHYITPPGTVAQSAPNLAGSRSYRETGTMTVTVDALNVRRAPNTSGEIVAVYKRGESFDYDTVIIDVNGYVWVSYIGGSGKRNYVATGATKDGKRFGNAWGTFK"}}, "key": {"Staphylcoccus aureus": {"test_system": "Staphylcoccus aureus", "assay": "MIC of PlySs2, susceptible and non-susceptible bacterial strains", "format": "cell-based"}, "Streptococcus pneumoniae": {"test_system": "Streptococcus pneumoniae", "assay": "MIC of PlySs2, susceptible and non-susceptible bacterial strains", "format": "cell-based", "settings": "Streptococcus pneumoniae (26)"}, "[1]": {"test_system": "Antibiotic-Resistant Staphylococcus aureus", "assay": "MIC of PlySs2 against antibiotic-resistant S. aureus", "format": "cell-based", "design": "unit not given here"}, "S. aureus strains": {"test_system": "S. aureus strains", "assay": "PlySs2 and antibiotic MIC, broth microdilution, 80% growth inhibition (CLSI M07-A9)", "format": "cell-based"}, "[2]": {"test_system": "Staphylococcus epidermidis strains", "format": "cell-based"}, "biofilms of BAA-42 MRSA": {"test_system": "biofilms of BAA-42 MRSA", "assay": "Biofilm eradication in 24-well plates, crystal violet staining", "format": "cell-based, S. aureus"}, "Enterococcus faecium": {"test_system": "Enterococcus faecium", "settings": "Enterococcus faecium (5)"}, "Acinetobacter baumannii": {"test_system": "Acinetobacter baumannii", "settings": "Acinetobacter baumannii (8)"}, "Pseudomonas aeruginosa": {"test_system": "Pseudomonas aeruginosa", "settings": "Pseudomonas aeruginosa (5)"}}, "note": "Read-outs that look alike come from different tables or passages of the source."}
{"molecule": "B1", "values": [{"measurement": "MIC 50%", "setting": "Staphylcoccus aureus; Methicillin resistant (120)", "result": 4, "unit": "µg/mL"}, {"measurement": "MIC 90%", "setting": "Staphylcoccus aureus; Methicillin resistant (120)", "result": 8, "unit": "µg/mL"}, {"measurement": "MIC Range", "setting": "Staphylcoccus aureus; Methicillin resistant (120)", "result": "1 to 16", "unit": "µg/mL"}, {"measurement": "MIC 50%", "setting": "Staphylcoccus aureus; Methicillin susceptible (103)", "result": 4, "unit": "µg/mL"}, {"measurement": "MIC 90%", "setting": "Staphylcoccus aureus; Methicillin susceptible (103)", "result": 8, "unit": "µg/mL"}, {"measurement": "MIC Range", "setting": "Staphylcoccus aureus; Methicillin susceptible (103)", "result": "1 to 16", "unit": "µg/mL"}, {"measurement": "MIC 50%", "setting": "Streptococcus pneumoniae", "result": 16, "unit": "µg/mL"}, {"measurement": "MIC 90%", "setting": "Streptococcus pneumoniae", "result": 64, "unit": "µg/mL"}, {"measurement": "MIC Range", "setting": "Streptococcus pneumoniae", "result": "1 to 64", "unit": "µg/mL"}, {"measurement": "MIC 50%", "setting": "[1]; Daptomycin-resistant (8)", "result": 2}, {"measurement": "MIC 90%", "setting": "[1]; Daptomycin-resistant (8)", "result": 4}, {"measurement": "MIC Range", "setting": "[1]; Daptomycin-resistant (8)", "result": "2-4"}, {"measurement": "MIC 50%", "setting": "[1]; Linezolid-resistant (5)", "result": 2}, {"measurement": "MIC 90%", "setting": "[1]; Linezolid-resistant (5)", "result": 2}, {"measurement": "MIC Range", "setting": "[1]; Linezolid-resistant (5)", "result": "2-4"}, {"measurement": "MIC 50%", "setting": "[1]; Vancomycin-intermediate (31)", "result": 8}, {"measurement": "MIC 90%", "setting": "[1]; Vancomycin-intermediate (31)", "result": 32}, {"measurement": "MIC Range", "setting": "[1]; Vancomycin-intermediate (31)", "result": "1-64"}, {"measurement": "MIC 50%", "setting": "[1]; Vancomycin-resistant (14)", "result": 2}, {"measurement": "MIC 90%", "setting": "[1]; Vancomycin-resistant (14)", "result": 4}, {"measurement": "MIC Range", "setting": "[1]; Vancomycin-resistant (14)", "result": "1-4"}, {"measurement": "MIC90", "setting": "S. aureus strains; DRSA (n = 8)", "result": 0.15, "unit": "µM"}, {"measurement": "MIC90", "setting": "S. aureus strains; LRSA (n = 5)", "result": 0.08, "unit": "µM"}, {"measurement": "MIC90", "setting": "S. aureus strains; MRSA (n = 45)", "result": 0.15, "unit": "µM"}, {"measurement": "MIC90", "setting": "S. aureus strains; MSSA (n-28)", "result": 0.15, "unit": "µM"}, {"measurement": "MIC90", "setting": "S. aureus strains; VISA (n = 10)", "result": 1.2, "unit": "µM"}, {"measurement": "MIC90", "setting": "S. aureus strains; VRSA (n = 14)", "result": 0.08, "unit": "µM"}, {"measurement": "MIC", "setting": "[2]; CFS 224, HER 1292", "result": 512, "unit": "µg/mL"}, {"measurement": "MIC", "setting": "[2]; CFS 225, HPH-6", "result": 128, "unit": "µg/mL"}, {"measurement": "MIC", "setting": "[2]; CFS 226, HPH-5", "result": 512, "unit": "µg/mL"}, {"measurement": "MIC", "setting": "[2]; CFS 227, HCN-4", "result": ">512", "unit": "µg/mL"}, {"measurement": "MIC", "setting": "[2]; CFS 272, NRS53 (VISE)", "result": 128, "unit": "µg/mL"}, {"measurement": "MIC", "setting": "[2]; CFS 280, NRS101 (MRSE)", "result": 128, "unit": "µg/mL"}, {"measurement": "MIC", "setting": "[2]; CFS 300, NRS8, (VISE)", "result": 32, "unit": "µg/mL"}, {"measurement": "MIC", "setting": "[2]; CFS 313, NRS34 (VISE)", "result": 8, "unit": "µg/mL"}, {"measurement": "MIC", "setting": "[2]; CFS 533, NRS6, (VISE), bloodstream USA", "result": ">512", "unit": "µg/mL"}, {"measurement": "MIC", "setting": "[2]; CFS 769, NRS101", "result": 64, "unit": "µg/mL"}, {"measurement": "biofilm dissolution", "setting": "biofilms of BAA-42 MRSA; 3.2 μg/ml (1/10×MIC), 4 hours", "result": "Significant dissolution"}, {"measurement": "time by which full clearance was observed", "setting": "biofilms of BAA-42 MRSA; 0.01×MIC", "result": "≤ 24", "unit": "h"}, {"measurement": "biofilm clearance", "setting": "biofilms of BAA-42 MRSA; 0.01×MIC, 4 hours", "result": "partial clearance"}, {"measurement": "time by which the biofilm is cleared", "setting": "biofilms of BAA-42 MRSA; 0.1×MIC", "result": "≤ 4", "unit": "h"}, {"measurement": "biofilm dissolution", "setting": "biofilms of BAA-42 MRSA; 0.32 (1/100×MIC), 4 hours", "result": "some dissolution"}, {"measurement": "time by which the biofilm is cleared", "setting": "biofilms of BAA-42 MRSA; 1×MIC 32 μg/ml", "result": "≤ 2", "unit": "h"}, {"measurement": "MIC 50%", "setting": "Enterococcus faecium", "result": ">512", "unit": "µg/mL"}, {"measurement": "MIC 90%", "setting": "Enterococcus faecium", "result": ">512", "unit": "µg/mL"}, {"measurement": "MIC 50%", "setting": "Acinetobacter baumannii", "result": ">512", "unit": "µg/mL"}, {"measurement": "MIC 90%", "setting": "Acinetobacter baumannii", "result": ">512", "unit": "µg/mL"}, {"measurement": "MIC Range", "setting": "Acinetobacter baumannii", "result": ">512", "unit": "µg/mL"}, {"measurement": "MIC 50%", "setting": "Pseudomonas aeruginosa", "result": ">512", "unit": "µg/mL"}, {"measurement": "MIC 90%", "setting": "Pseudomonas aeruginosa", "result": ">512", "unit": "µg/mL"}, {"measurement": "MIC Range", "setting": "Pseudomonas aeruginosa", "result": ">512", "unit": "µg/mL"}]}
